Data on two molecules can be found in paper PMC9963752 (Proceedings of the National Academy of Sciences of the …, 2023).

No end group written: not given here.

For one test, the system named is GRPR. The settings on record: relative to PD176252 (methoxy group replaced by hydrogen); cited from earlier work.
The target of test [1] is GRPR with alanine mutation of Q120^3.30 (human, UniProt P30550 1-384, alanine mutation of Q120^3.30). The experiment in a line: cell-based or functional assay.
Test [2] concerns the target GRPR with alanine mutation of C93^2.57 (human, UniProt P30550 1-384, alanine mutation of C93^2.57). The experiment in a line: cell-based or functional assay.

For `C[C@@](Cc1c[nH]c2ccccc12)(NC(=O)Nc1ccc([N+](=O)[O-])cc1)C(=O)NCC1(c2ccccn2)CCCCC1` [PD168368], the “reduction for GRPR binding” value in the test with GRPR was 17 fold.

B1: gastrin-releasing peptide (peptide)
peptide: VPLPAGGGTVLTKMYPRGNHWAVGHLM-NH2
For the molecule B1, the figures for the “GRP-induced calcium mobilization in transfected CHO cells: EC50 against WT-GRPR” value in test [1] and in test [2] were 25 fold and 12 fold, respectively.
